# Assay results published in patent publication US20220249679A1 (MITSUBISHI TANABE PHARMA, published 2022).
# Where “and” joins values, the source holds several entries; their conditions need not be identical. Identical values can stand only once.
# B1: F12P18D4.a (antibody, V domains shown)
# VH: EVQLQQSGPELVKPGASVKMSCKASGYTFADYYMKWVKQSHGKSLEWIGDINPNSGDTFYNHKFKGKATLTVDKSSSTAYMQLNSLTSEDSAVYYCARTYYDYWGQGTTLTVSS
# VL: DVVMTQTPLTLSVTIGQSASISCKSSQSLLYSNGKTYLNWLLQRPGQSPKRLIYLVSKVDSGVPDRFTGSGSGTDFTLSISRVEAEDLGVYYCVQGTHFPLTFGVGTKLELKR
# notes: Murine IgG purified from hybridoma supernatant
# B2: 12P16F6 hIgG1 (antibody, V domains shown)
# VH: QVQLQQSGAEVVKPGASVKLSCKASGYTFTSYYLYWVKKGPGQGLDWIGEIYPRSGGTNINEKFLSKATLTADESSSTAYLQLSSLTSEDSAVYYCTRSLLYWGQGTTLIVSS
# VL: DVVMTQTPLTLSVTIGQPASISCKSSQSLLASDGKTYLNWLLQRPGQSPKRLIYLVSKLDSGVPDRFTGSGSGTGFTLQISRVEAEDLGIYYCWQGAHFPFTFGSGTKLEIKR
# notes: Chimeric antibody: murine variable regions of F12P16F6 with constant regions of human IgG1, kappa isotype; also called chF6; chP16F6
# B3: F12P16F6 (antibody, V domains shown)
# VH: QVQLQQSGAEVVKPGASVKLSCKASGYTFTSYYLYWVKKGPGQGLDWIGEIYPRSGGTNINEKFLSKATLTADESSSTAYLQLSSLTSEDSAVYYCTRSLLYWGQGTTLIVSS
# VL: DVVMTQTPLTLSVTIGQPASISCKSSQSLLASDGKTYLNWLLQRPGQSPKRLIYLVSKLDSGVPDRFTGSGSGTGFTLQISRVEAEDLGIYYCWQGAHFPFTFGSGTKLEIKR
# notes: Murine hybridoma antibody (IgG); tested as hybridoma supernatant in FACS and as purified murine IgG in SPR
# B4: hF6-HN-G7 (bispecific antibody, human IgG1, kappa)
# heavy: not shown
# light: DVVMTQTPLSLSVTPGQPASISCKSSQSLLASDGKTYLNWLLQRPGQSPKRLIYLVSKLDSGVPNRFSGSGSGTDFTLQISRVEAEDVGLYYCWQGAHFPFTFGSGTKLEIKRTVAAPSVFIFPPSDEQLKSGTASVVCLLNNFYPREAKVQWKVDNALQSGNSQESVTEQDSKDSTYSLSSTLTLSKADYEKHKVYACEVTHQGLSSPVTKSFNRGEC
# notes: G7 Fynomer fused through the linker to the N-terminus of the hF6 heavy chain; IgG1/kappa
# B5: 13P30A7 hIgG1 (antibody, V domains shown)
# VH: EVQLVESGGGLVQPKGSLKLSCAASGFTFNTYAMNWVRQAPGKGLEWIARIRSKSNNYATYYADSVKDRFTISRDDSQSLLYLQMNNLKTEDTAIFYCVTDYGYVYFDAWGAGTTVTVSS
# VL: NIIMTQSPKSMAMSVGERVTLSCKASENVGNYVSWYQQKPEQSPKLLIYGASYRYTGVPDRFTGSGSGTDFTLTISSVQAEDLADYHCGQSSRYPLTFGAGTKLELKR
# notes: Chimeric antibody: murine variable regions of F13P30A7 with constant regions of human IgG1, kappa isotype; also called chP30A7; chP30a7
# B6: F13P30A7 (antibody, V domains shown)
# VH: EVQLVESGGGLVQPKGSLKLSCAASGFTFNTYAMNWVRQAPGKGLEWIARIRSKSNNYATYYADSVKDRFTISRDDSQSLLYLQMNNLKTEDTAIFYCVTDYGYVYFDAWGAGTTVTVSS
# VL: NIIMTQSPKSMAMSVGERVTLSCKASENVGNYVSWYQQKPEQSPKLLIYGASYRYTGVPDRFTGSGSGTDFTLTISSVQAEDLADYHCGQSSRYPLTFGAGTKLELKR
# notes: as for B1
# B7: F13P14D3 (antibody, V domains shown)
# VH: EVQLVESGGGLVQPKGSLKLSCATSGFTFNTYAMNWVRQAPGKGLEWVARIRSKSNNYATYYVDSVKDRFTISRDDSQSTVHLQMNNLKTEDTAIYYCVTDYGHVYFDVWGAGTTVTVSS
# VL: NIVMTQSPKSMSMSVGQRVTLSCKASENVGSYVSWYQQKPEQSPKLLIYGASNRNTGVPDRFTGSGSATDFTLTISSVQAEDLADYHCGQSSRYPLTFGGGTKLELKR
# notes: as for B1
# B8: F13P18D8 (antibody, V domains shown)
# VH: EVQLLESGGGLVQPEGSLKLSCAASGFAFNTYAMNWVRQAPGKGLEWLARIRSKSNNYATYYADSVKDRFTISRDDSQGMLYLQMNNLKTEDTAMYYCVTDYYYVYFDVWGAGTTVTVSS
# VL: NIVMTQSPKSMSMSVGERVTLSCKASENVGTYVSWYQQKSDQSPKLLIYGASNRYTGVPDRFTGSGSATDFTLTITSVQSEDLADYHCGQSSRYPLTFGAGTKLELKR
# notes: as for B1
# Key:
# [1] = biological target: T1, Human CD138 His (human, UniProt P18827 23-254); assay: SPR, summary table
# T1 construct: also called hCD138
# T1 sequence: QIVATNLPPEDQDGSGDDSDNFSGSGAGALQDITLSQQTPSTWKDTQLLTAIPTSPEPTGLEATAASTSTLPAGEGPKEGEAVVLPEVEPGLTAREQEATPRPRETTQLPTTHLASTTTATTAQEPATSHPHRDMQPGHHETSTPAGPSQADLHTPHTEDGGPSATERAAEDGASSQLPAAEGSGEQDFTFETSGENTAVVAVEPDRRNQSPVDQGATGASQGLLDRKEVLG
# Method: (§1) Murine IgGs were purified from the hybridoma supernatants and the IgGs were subject to SPR (surface plasmon resonance) for kinetic binding measurements. Human or mouse CD138 His was immobilized on a GLM chip at […] on a BioRad Proteon. […] KDs were measured using bivalent analyte fit.
# [2] = biological target: T2, Mouse CD138 His (mouse, UniProt P18828 23-255); assay: SPR, summary table
# T2 construct: also called mCD138
# T2 sequence: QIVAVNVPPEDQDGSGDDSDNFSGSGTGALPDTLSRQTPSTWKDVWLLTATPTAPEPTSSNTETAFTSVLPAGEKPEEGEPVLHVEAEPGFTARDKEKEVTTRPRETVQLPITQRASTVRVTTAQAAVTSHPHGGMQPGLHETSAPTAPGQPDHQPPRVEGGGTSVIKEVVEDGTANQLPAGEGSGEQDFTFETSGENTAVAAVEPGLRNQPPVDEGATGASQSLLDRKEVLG
# Method: as §1
# [3] = biological target: T1, Human CD138 His; assay: SPR (BioRad Proteon), CD138 His immobilized, bivalent analyte fit
# Method: as §1
# [4] = biological target: T2, Mouse CD138 His; assay: SPR (BioRad Proteon), mouse CD138 His immobilized, bivalent analyte fit
# Method: as §1
# [5] = biological target: T3, hCD138 peptide AGEGPKEGEAVVLP (human); assay: ELISA, plate-coated hCD138 peptide
# T3 construct: Portion of the linear CD138 peptide used for immunization; also the peptide in the crystal structure; also called syndecan-1 peptide
# T3 peptide: AGEGPKEGEAVVLP
# Method: (§2) A CD138 binding ELISA was performed with 9 representative humanized antibodies to determine binding to portion of the linear CD138 peptide used for immunization (FIG. 7). […] Coated plates were incubated with various dilutions of each of the 9 representative antibodies overnight and binding was detected with a goat anti-human IgG (H+L)-HRP. EC50s were determined using four parameter fit curves (Table 21). An ELISA was also performed to detect binding to plate-coated human CD138-Fc protein (Table 21).
# [6] = biological target: T4, Human CD138-Fc protein (human, UniProt P18827 23-254); assay: ELISA, plate-coated human CD138-Fc
# T4 construct: also called hCD138-Fc
# T4 sequence: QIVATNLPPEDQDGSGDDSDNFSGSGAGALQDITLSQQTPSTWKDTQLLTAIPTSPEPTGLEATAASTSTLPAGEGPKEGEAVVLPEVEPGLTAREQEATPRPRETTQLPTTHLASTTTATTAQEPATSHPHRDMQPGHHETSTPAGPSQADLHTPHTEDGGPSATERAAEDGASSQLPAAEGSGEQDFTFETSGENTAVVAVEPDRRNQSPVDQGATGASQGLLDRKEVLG
# Method: as §2
# [7] = biological target: T5, Cynomolgus monkey CD138 on transfected Expi293 cells (cynomolgus monkey, UniProt P18827 23-310 (human entry)); assay: FACS titration on Expi293 cells transfected with cynomolgus CD138
# T5 construct: also called cyno CD138
# T5 chain: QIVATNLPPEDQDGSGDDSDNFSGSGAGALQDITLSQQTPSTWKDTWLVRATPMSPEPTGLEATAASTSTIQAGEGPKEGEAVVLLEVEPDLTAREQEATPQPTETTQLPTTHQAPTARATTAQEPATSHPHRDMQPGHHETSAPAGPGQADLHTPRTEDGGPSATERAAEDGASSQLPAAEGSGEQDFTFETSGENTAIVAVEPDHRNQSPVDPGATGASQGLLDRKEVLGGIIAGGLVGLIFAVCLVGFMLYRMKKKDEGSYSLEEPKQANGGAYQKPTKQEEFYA
# Description: Briefly, a vector directing the cell-surface expression of human CD138 or cyno CD138 was transfected in Expi293 cells.
# [8] = biological target: T6, Human syndecan-1 (CD138) on the cell surface (human, UniProt P18827 23-310); assay: FACS on KMS-11 cells (previous experiments); KMS-11 multiple myeloma cells, previous experiments
# T6 construct: Endogenous on H929, KMS-11 and RT112/84 cells or transfected into Expi293 cells; also called human CD138; hCD138
# T6 sequence: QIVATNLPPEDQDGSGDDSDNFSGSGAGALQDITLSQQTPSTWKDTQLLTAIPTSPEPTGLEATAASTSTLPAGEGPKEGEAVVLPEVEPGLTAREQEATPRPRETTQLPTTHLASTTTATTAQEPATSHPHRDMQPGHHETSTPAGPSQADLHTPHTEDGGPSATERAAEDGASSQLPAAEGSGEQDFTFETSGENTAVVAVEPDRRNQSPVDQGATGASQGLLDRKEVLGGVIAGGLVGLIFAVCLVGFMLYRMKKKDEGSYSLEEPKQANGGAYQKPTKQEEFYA
# [9] = biological target: T6, Human syndecan-1 (CD138) on the cell …; assay: FACS on RT112/84 cells (previous experiments); RT112/84 bladder cancer cells (printed RT-122/84), previous experiments
# [10] = biological target: T2, Mouse CD138 His; assay: SPR, mouse CD138 His immobilized
# Method: as §1
# [11] = biological target: T7, Negative control peptide QAAVTSHPHGGMQPGLHETSA (mouse); assay: told in the method of the peptide ELISA
# T7 construct: also called mouse CD138 peptide
# T7 peptide: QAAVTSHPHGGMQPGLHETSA
# Method: as §2
# [12] = biological target: T8, hCD138 (ELISA of Table 29) (human, UniProt P18827 23-254, limits assumed); assay: hCD138 ELISA
# T8 construct: also called human CD138
# T8 sequence: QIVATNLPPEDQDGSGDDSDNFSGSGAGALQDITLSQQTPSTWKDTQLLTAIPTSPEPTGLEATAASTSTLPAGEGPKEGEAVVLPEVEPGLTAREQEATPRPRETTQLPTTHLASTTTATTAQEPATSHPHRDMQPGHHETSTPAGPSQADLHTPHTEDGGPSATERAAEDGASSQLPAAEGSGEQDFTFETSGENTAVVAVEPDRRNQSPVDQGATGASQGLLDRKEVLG
# [13] = biological target: T9, Human FGFR3c on transfected CHO cells (human, UniProt P22607 23-375); assay: FACS histogram on CHO cells expressing human FGFR3c (panel title FGFR3c K.I.); concentration not given
# T9 sequence: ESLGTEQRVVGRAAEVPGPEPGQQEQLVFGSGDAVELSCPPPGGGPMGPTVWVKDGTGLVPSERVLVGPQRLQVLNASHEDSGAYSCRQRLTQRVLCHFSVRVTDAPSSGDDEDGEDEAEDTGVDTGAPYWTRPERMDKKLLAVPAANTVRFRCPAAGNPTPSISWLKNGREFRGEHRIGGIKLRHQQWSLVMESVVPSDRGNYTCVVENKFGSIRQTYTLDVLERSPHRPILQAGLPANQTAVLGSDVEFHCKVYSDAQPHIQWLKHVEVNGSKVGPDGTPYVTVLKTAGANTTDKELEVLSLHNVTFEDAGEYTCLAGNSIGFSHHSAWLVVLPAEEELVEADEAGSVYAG
# Description: (§3) CHO cells (Chinese Hamster Ovary cells) were transfected to express the human FGFR3c (FIG. 16A) or human FGFR3b (FIG. 16B) on the cell surface.
# [14] = biological target: T10, Human FGFR3b on transfected CHO cells (human); assay: FACS histogram on CHO cells expressing human FGFR3b (panel title FGFR3b K.I.); concentration not given
# T10 chain: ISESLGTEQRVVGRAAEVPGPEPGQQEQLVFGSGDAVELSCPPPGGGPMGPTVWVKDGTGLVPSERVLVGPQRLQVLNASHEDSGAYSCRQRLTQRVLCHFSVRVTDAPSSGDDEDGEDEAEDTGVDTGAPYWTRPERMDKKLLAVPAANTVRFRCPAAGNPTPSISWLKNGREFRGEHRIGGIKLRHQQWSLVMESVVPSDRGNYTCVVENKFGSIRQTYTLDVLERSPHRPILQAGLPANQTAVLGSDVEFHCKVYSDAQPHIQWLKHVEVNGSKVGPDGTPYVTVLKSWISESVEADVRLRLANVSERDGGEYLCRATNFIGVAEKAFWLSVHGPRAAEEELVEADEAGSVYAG
# Description: as §3
# [15] = biological target: T11, Mouse CD138 (ELISA binding assay, data not shown) (mouse, UniProt P18828 23-255, limits assumed); assay: ELISA binding assay
# T11 construct: Construct used in the ELISA is not described
# T11 sequence: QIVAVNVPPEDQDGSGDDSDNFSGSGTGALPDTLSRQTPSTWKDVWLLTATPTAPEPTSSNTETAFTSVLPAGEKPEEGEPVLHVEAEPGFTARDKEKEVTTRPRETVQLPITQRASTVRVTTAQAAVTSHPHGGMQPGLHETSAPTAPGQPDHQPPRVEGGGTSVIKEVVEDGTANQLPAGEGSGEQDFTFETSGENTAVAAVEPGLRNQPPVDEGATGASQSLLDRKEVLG
Binder,Kd [1],Kd [3],koff [3],kon [3],binding result [15],further results
B1,29 nM,28.6 nM,0.018 s⁻¹,631000 M⁻¹ s⁻¹,,Kd [2]: 672 nM; Kd [4]: 672 nM
B2,,,,,,EC50 [5]: 0.599 nM; EC50 [6]: 0.471 nM; binding result [7]: binds; EC50 [8]: ~3 nM; EC50 [9]: ~9 nM
B3,21 nM,21 nM,0.00117 s⁻¹,55700 M⁻¹ s⁻¹,,binding result [10]: no binding (tested: 167 nM); binding result [11]: no binding
B4,,,,,,EC50 [12]: 0.69 nM; binding result [13]: binds; binding result [14]: binds
B5,,,,,,binding result [7]: binds
B6,5 nM,5.32 nM and 5.3 nM,0.00127 s⁻¹,238000 M⁻¹ s⁻¹,no binding,
B7,10 nM,9.67 nM and 9.7 nM,0.00104 s⁻¹,107000 M⁻¹ s⁻¹,no binding,
B8,2 nM,1.88 nM and 1.9 nM,0.000523 s⁻¹,278000 M⁻¹ s⁻¹,no binding,
